According to the DeepSol protein solubility set:

assay: soluble on expression in E. coli; label from the status in PepcDB or PDB records

| Sequence | soluble on expression in E. coli |
| --- | --- |
| MSLRKKGPVVLGKFWIYWCEKCNVPLIGDTCSIHGKDSVFKITLTPPGDVRFAFPKDIELIREVFREHYGVDLGELLEGKIVLLNKIPGEDDSYEIIFDGFIFGIISFNPRKLKWKPGLKEEGAKLLWEKFGKSLKKWVIIDRGAVEPVKNGANVLPVGVIEAEESIRRGDEVIVVSEDGEVVGVGIAKKDYNELINPQARGTGVKMKRKSKGSGKRLNGRKATIKDVIKANSAELEKKVREARNFMRSVAEKFKLPVAVAFSGGKDSLAVLGLAMEEFNNFTVFFNNTGIEFPETVEYVMKLREKYKNLNFIIADAGDAFWRAINIFSPPGMDYRWCCKVTKLGPITLAIRKHFPNGVLMFVGQRKFESFKRYKQGRVWKNKWVPNEIGAAPIFHWTALEVWLYIFSRGLEYNPLYEKGIDRIGCFLCPSQSLAEIQRLKEEKPELWEKWYRELEKWRKRLGLPREWIEYGFWRWRRVGRREKVLAKELGVEIPEERSWEVIKFDIKEEEGKYIVRPSTKLNLTRIREVAPILGNVEEGDNYLKAGENIFDKDKNVIISPSLEEAYSSVLLLKRAYECVGCGVCITSCPEEAIELDEKRKKIVVSLEKCTHCRECMNVCPLVVIKGVDNILEGHHHHHH | not soluble |
| MRFRPFTEEDLDRLNRLAGKRPVSLGALRFFARTGHSFLAEEGEEPMGFALAQAVWQGEATTVLVTRMEGRSVEALRGLLRAVVKSAYDAGVYEVALHLDPERKELEEALKAEGFALGPLVLAVRVLGSRGARGETRGVLE | soluble |
| MSLTIYGVYRSRATRTLWLAAELGIEFKHVPVIQARRLADPLATDAPLNTLSPAFLAVNPMGTIPCIEDDGMVLYESMAINLYLARKYGGPLAPVDLKEDAAMLQWSFFAATEIETNSLKISSAIAEGLAESDAGKAVIDVAARLLKRPLRVLEQHLATHDYLVGDRFTVADLNVAEIVRYAQGHQPLFDAHPALKAWLARCQARTAFKSMWDSRTAEGHHHHHH | soluble |
| GAMGSGIPMEACPHIRYAFQNDKLLLQQASVGRLTLVNKTTILLRPMKTTTVDLGLYARPPEGHGLMLWGSTSRPVTSHVGIIDPGYTGELRLILQNQRRYNSTLRPSELKIHLAAFRYATPQMEEDKGPINHPQYPGNVGLDVSLPKDLALFPHQTVSVTLTVPPPSIPHHRPTIFGRSGLAMQGILVKPCRWRRGGVDVSLTNFSDQTVFLNKYRRFCQLVYLHKHHLTSFYSPHSDAGVLGPRSLFRWASCTFEEVPSLAMGDSGLSEALEGRQGRGFGSSGQ | soluble |
| MSSLCPYTGRPTGLFRDFEDMMPYWAQRHSMLNNFNNIVPQQLNEVENTAQKFCVKLDVAAFKPEELKVNLEGHVLTIEGHHEVKTEHGFSKRSFTRQFTLPKDVDLAHIHTVINKEGQMTIDAPKTGSNTTVRALPIHTSAGHAVTQKPSSTTTTGKH | not soluble |
| MGSDKIHHHHHHMNIIPYRVTLLEPLLATRIAGDPNSGVSYPYVPGSLVRGAAVAMYARNKGIVAVDAREEEARRLFFDGRTRYLNAYPADASGRRTLPTPRSLFHVEGEESPIYDFALEVIDAVNEETVQFVGAARDSQPFCRIDDSNIFFISPKRRINVHTQRDRVKGRATEVSGAVFQYDALEEGQTFAGWVLVDKDDDVELLSSLLRHIYRLGGSSNSGYGRVTVAVDAPQNIQVWREIPKQIVPIDAGETFVVTLLSDTLVRDPNTGQYTWDLRPALQQLLSVEIEHIHPIAGEEEQRSVWRLDEVGGFNRAWGLPLPQAQAIAGGSVFVFRARSPIPAQTIAGAEWDGIGERRAEGFGRLAFNWQTETELIRVDPPVVSLIDQLVPNLDGPARNIAQQMAMRMLRRELDAKLRKAINDIRPKHLSISNTQLSRLRIIAREALPNGDLARLQKYLDENIKTRRSVRDQFDRTRLGSEERLSQWLEERLSQPETVWDKIGAQTLSKRIGANVLVSTRDDTELAREYTIRLIDGVLARLAKERRREDGGRQ | not soluble |
| MGSDKIHHHHHHMRIQQLHYIIKIVECGSMNEAAKQLFITQPSLSNAVKDLEMEMGITIFNRNPKGITLTKDGVEFLSYARQIIEQTSLLEDRYKNHNTGRELFSVSSQHYAFVVNAFVSLLKRTDMTRYELFLRETRTWEIIDDVKNFRSEIGVLFINDYNRDVLTKLFDDNHLTASPLFKAQPHIFVSKSNPLATKSLLSMDDLRDFPYLSYDQGIHNSFYFSEEMMSQMPHNKSIVVSDRATLFNLMIGLDGYTVASGILNSNLNGDQIVAIPLDVPDEIDIVFIKHEKANLSKMGERFIEYLLEEVTFD | not soluble |
| MAPTLLELTASIVSSHAAVSELSTEELVQEIQKVHATLQQLEGGAAAPEVAAEEAKAPAMTLKKAFQADQVCCMICGKGGMKTLTRHLAQVHQMKPGEYRKQFNIPSSQPLTAKKFSEARKQMAKDRGLAENLAKARAVRAAKIQEKKAAAEKPAKTKATRAKKATA | not soluble |
| MINKTQARRHKRKYKYRSKGNHSRSLLGMHTSPANSSMSQAIYSNDSLTTTDGVLGDESLSSETSIVSFTGENANKQKRQRLSESTENSIPEPAFLRSNVTSLTTSESDDIQQFFLENESLFQIEYKIDYKNYRDYTIVPSFGTVIPKSKCEIALICRPTGKSESDQMTISYKTVDSDNDLANGCFSEMEKIVIDIKGRSQESPIHSIPSSSGSSSTSSPSAKRRNIVDSDSD | not soluble |
| MSLKAKIKELENNLERLRSDLQSKIQEIESIRSCKDSQLKWAQNTIDDTEMKMKSLLTELSNKETTIEKLSSEIENLDKELRKTKFQYKFLDQNSDASTLEPTLRKELEQIQVQLKDANSQIQAYEEIISSNENALIELKNELAKTKENYDAKIELEKKEKWAREEDLSRLRGELGEIRALQPKLKEGALHFVQQSEKLRNEVERIQKMIEKIEKMSTIVQLCKKKEMSQYQSTMKENKDLSELVIRLEKDAADCQAELTKTKSSLYSAQDLLDKHERKWMEEKADYERELISNIEQTESLREGHHHHHH | soluble |
| MGSDKIHHHHHHMGSETEYGIHAPSAPGANATMMSARVIQAYAQLTRQRAAGGAETRWDYTDEEPLHDARGWTLERNQADPSQLTDQPPVLDAEAVALAYGREELEQDGEDETGSLLMNMVLGNGARLYVDHAHPEYSSPEVTNPLDAVAWDAAGDLVALSAVRRMAADPQLPPVNLYKNNTDNKSVSYGSHENYLMPRAVPFGDIVRGLTPFFITRQIMCGAGRVGLGQDSSRPGYQISQRADFFEAEVGLETTIRRPIINTRDEPHATADKYRRLHVIIGDANLSQAANYLKFGTTAMVLSLIEAGLAPRVEVHEPVAALQAVSHDTSLTATLRLLDGRRVTALDLQWMYHEAAAKLAQDTGVGDSVDGDGHTHALLERWAATLTDLDSDRTAAASSVEWLAKLSLLEGYRQRDGLQWNDARLGLVDLQWADVRPEKGLYYRMLARGRMDRIVADETIARAMTEPPSDTRAYFRGRCVSSFSKDVVGASWDSVIFDVPGHGRLQRVPTREPLRGTEALTGGLFARHKDTGSFLAELLGQTPPPPPA | not soluble |
| MFTDSTAKTVAPYTWKTDAGARATSTSDCIVLVLNGNNPIVADVQSCNADTTLPALGVMCGKRAWVY | soluble |
| MELRNTKLEQLFYIYHRNLKYRCPMQYLTKRGFNLQDLLSVGGGLAYLGEKQWLNLSLYNFNNQLVGFLSRKVGFEKKFLYLPINKPPSKSESFLGLKHLPTET | not soluble |
| MHLHISSIPHRNSNNSKGGVLDATGPMLSAKRGALLLQAYHRPGEVISYKAGDYHLVPKKFTVGKRIAVRSYLDRNRTELSDRTFMPQKNWFRPYDLQDGCFDRDHERLSYRFYNLETKVIWKAFDTPELIGMLLHDETVKGNSGMYAPDMLDAALHYTREARYWRCIGITKPFYDRNTLRAHCWEDNGLQVGTLVMSQAMRHALMDLERAVRRKELGLEPNYLWDRWGPIGFIDGARADYLPRFEHNPYVDPDGVDVTEIDVLPFNTHEQIRERYRDFIEPDTAPFEEVFRSPSHGSLTTLADIPNASVVALYKDLKLKAGTPVAGDAVELAPADVRTLFYLSANPEWRAVADGKASWEEVVDAMQPVQAELDEKIDAARLLQNTRHNAERVRAFFEEKCGFHDFMYTPDKTITAAVLCYLTELRRICTETAWGAALAKCLTDMERVQGMGRDAFLVYRHIEDAILDKKRRLWAGRFAGESHEESTLDYLLENFGRRAERPRNVGTTGVEFDREQEPIGRQVQRRVLDSDKANKLAEIRRSRGKMWSKKRSVFDALHEKQLQNFNYGVH | soluble |
| MAHHHHHHMLANEGRNASANNTTQPSFLILSSKNRHCITHNLTQIQTRCRPHFTEKRLKRGSWLKREEVWIEVQLCYRLGRRFTPTLFSQCAYRPSIRLGPTGTTGLAVPLLKIIYRQNSTIQKHKKEDDEKRCIKKKTIYGT | not soluble |
| SLEYNLTTKEVEMVNVTASWDEGIGELFEKVKQNDSERKMANGDDGLFFSNFSLHVTPVLKNISFKLEKGELLAIAGSTGSGKSSLLMMIMGELEPSDGKIKHSGRISYSPQVPWIMPGTIKDNIIFGLSYDEYRYTSVVNACQLEEDITVFPNKDKTVLGDGGITLSGGQRARISLARALYKDADLYLLDSPFSHLDVTTEKDIFESCLCKLMVNKTRILVTSKLEHLKKADKILLLHEGHCYFYGTFSELQGEKPDFSSQLLGSVHFDSFSAERRNSILTETFRRCSVSSGDGAGLGSEG | soluble |
| MSLSKRILSPLQNNGILGEFYGVIIRAIEENCGRLGMNVELKMLENFSESNGADGYIFIGGDLSEKTLKEIKSRKKPFVLVDHYIPGERVDCVISDGYDGAVYATNYLISKGFKRIVHVHGPLHPYGFKMRYDGYKDAMEKAGLMPRFYECDDTEEGTRKVIDIMLNSYGTPEAIFTSNDSIAFWVIKRLKEHNIKVPDDVSVIGFDDIVDAENFDPPLTTLRVFKYEMGCLACKRLHELLTGINPHPVRILVFTQFVKRKSTKEGHHHHHH | soluble |
| SKSGAQTPKSPPEHYVQETPLMFSRCTSVSSLDSFESRSIASSVQSEPCSGMVSGIISPSDLPDSPGQTMPPSRSKTPPPPPQTAQTKREVPKNKAPTAEKRESGPKQAAVNAAVQRVQVLPDADTLLHFATESTPDGFSCSSSLSALSLDEPFIQKDVELRIMPPVQENDNGNETESE | soluble |
| MTESAPSAFFTTSTPADHVHEEESSNTGYFENLPENDIHSFFEIDATSEWIKQGNHQRIALQFPDSLLPYSEKVTKLIESRFRSESAKKTFVLADTSYRSCCVDEVAAAHADCTALVHFGEACHSAPTDKIDVKYVLGSMPIFIDQFRMEFQNVADQLTAEHIVLLMDSCFSHEQEKVAAVIKEVLPGNRHVECSLLPSEDVLKQNRQNIYLGREIPSCLRNNQPTDLIFCGFPNSPLLPIWLLSYPSCSTVSHFNPINKTIQHESTRSSRLLRKRLFLVEKLKDADTVGLVVGSVGVDKHREAVKRMREMCKKAGKKIYVISVGKINVPKLSNFSTDIDVFVLLSCPFGVVLDSSDYFRPVVSYFEAEIALNPAKTWAADFGWSAEFAAFLEDKIETEVPDDKAAGDFSLISGKVRVQKTEEEKNGDGPSSVAIYNPGYCNDRTWKGLNDGVSTAEDSTKMGEGRSGIAQGYSGK | not soluble |
| MSLKVLAAMSGGVDSSVAAARMVDAGHEVVGVHMALSTAPGTLRTGSRGCCSKEDAADARRVADVLGIPFYVWDFAEKFKEDVINDFVSSYARGETPNPCVRCNQQIKFAALSARAVALGFDTVATGHYARLSGGRLRRAVDRDKDQSYVLAVLTAQQLRHAAFPIGDTPKRQIRAEAARRGLAVANKPDSHDICFIPSGNTKAFLGERIGVRRGVVVDADGVVLASHDGVHGFTIGQRRGLGIAGPGPNGRPRYVTAIDADTATVHVGDVTDLDVQTLTGRAPVFTAGAAPSGPVDCVVQVRAHGETVSAVAELIGDALFVQLHAPLRGVARGQTLVLYRPDPAGDEVLGSATIAGASGLSTGGNEGHHHHHH | soluble |
